Test results taken from patent US20040224408A1, “THAP proteins as nuclear receptors for chemokines and roles in transcriptional regulation, cell proliferation and cell differentiation” (published 2004).

Molecular target: T1, THAP1 THAP domain (Homo sapiens, UniProt Q9NVV9 SEQ:1-90)
T1 sequence: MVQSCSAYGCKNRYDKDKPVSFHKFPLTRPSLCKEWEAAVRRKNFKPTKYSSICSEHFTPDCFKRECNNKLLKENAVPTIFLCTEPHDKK
Assay: EMSA; also no competition at 50-250x molar excess
Conditions: tags: C-terminal His6 (pET-21c); label: 32P
Description: To confirm that the THAP domain is a novel sequence specific DNA-binding domain, electrophoretic mobility shift assays (EMSA) were carried out using wild-type or mutant THAP domain responsive elements (THRE) determined by SELEX (see Example 28 and FIGS. 18 and 24). Double-stranded probes used in EMSA experiments were purified on 12% polyacrylamide gels, ³²P end labeled with T4 polynucleotide kinase and quantified by Cerenkov counting. About 20 ng of purified THAP domain from human THAP1 (prepared as described in Example 28) was incubated with 30000 cpm of the appropriate probe (about 2 ng). Binding reactions were carried out for 10 minutes at room temperature in 20 μl binding buffer (20 mM Tris-HCl pH 7.5, 100 mM KCl, 0.1% NP-40, 100 μg/ml BSA, 2.5 mM DTT, 5% glycerol, 200 ng poly (dI-dC)). Electrophoresis was performed on 8% (29:1) polyacrylamide gels containing 5% glycerol. Gels were run in 0.25×TBE at 150V and 4° C., dried and exposed on a phosphoimager screen (Molecular Dynamics). […]

B1: 3mut1 (dsDNA)
DNA 1: AGCAAGTAATTTCAAACTACTTCAT
DNA 2: ATGAAGTAGTTTGAAATTACTTGCT
B1: no binding.
